Laboratory results as given in article PMC7369618 (Redox Biology, 2020).

Biological target: EGFP-PKM2 (UniProt P14618 1-531)
Assay: MST

Sequence of EGFP-PKM2 (P14618 whole entry): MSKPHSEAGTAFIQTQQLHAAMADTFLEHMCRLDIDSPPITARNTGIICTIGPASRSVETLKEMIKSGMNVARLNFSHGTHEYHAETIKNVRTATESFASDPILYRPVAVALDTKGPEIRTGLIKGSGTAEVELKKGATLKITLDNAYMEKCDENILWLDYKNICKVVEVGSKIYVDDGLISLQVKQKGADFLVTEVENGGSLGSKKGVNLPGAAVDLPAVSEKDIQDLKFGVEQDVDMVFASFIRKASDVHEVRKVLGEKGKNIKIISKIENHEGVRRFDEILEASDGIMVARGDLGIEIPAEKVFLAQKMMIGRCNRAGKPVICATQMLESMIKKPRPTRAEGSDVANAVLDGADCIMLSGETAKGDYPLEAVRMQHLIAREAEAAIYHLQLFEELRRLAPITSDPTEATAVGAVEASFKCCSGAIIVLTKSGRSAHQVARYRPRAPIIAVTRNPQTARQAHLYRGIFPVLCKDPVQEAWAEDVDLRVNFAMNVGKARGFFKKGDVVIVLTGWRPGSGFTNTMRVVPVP

Kd: 0.001 pM
B1: Annexin A5 (sc-4252, Santa Cruz Biotechnology) (natural protein)
chain: MAQVLRGTVTDFPGFDERADAETLRKAMKGLGTDEESILTLLTSRSNAQRQEISAAFKTLFGRDLLDDLKSELTGKFEKLIVALMKPSRLYDAYELKHALKGAGTNEKVLTEIIASRTPEELRAIKQVYEEEYGSSLEDDVVGDTSGYYQRMLVVLLQANRDPDAGIDEAQVEQDAQALFQAGELKWGTDEEKFITIFGTRSVSHLRKVFDKYMTISGFQIEETIDRETSGNLEQLLLAVVKSIRSIPAYLAETLYYAMKGAGTDDHTLIRVMVSRSEIDLFNIRKEFRKNFATSLYSMIKGDTSGDYKKALLLLCGEDD
